Patent US20220372114A1 (CURIA IP, published 2022)
“And” between values parts separate entries of the source, which are not always exact repeats. Equal values may be shown once.

B1: 10-B13-A (human Fc IgG2 chimera) (antibody, V domains shown)
VH: QVQLQQSGAELVKPGASVKISCKASGYAFSNYWMNWVKQRPGKGLEWIGQIYPGDGDTNYNGNFKGKATLTADKSSSTAYIQLSSLTSEDSAVYFCGRGFIATVVEVFDHWGLGTTLTVSS
VL: DIQMTQTTSSLSASLGDRVTISCRASQDISNYLNWYQQKPDGTVKLLIYYTSRLQSGVPSRFSGSGTGTDYSLTISNLEQEDIATYFCQQGNTLPWTFGGGTKLEIK
B2: 10-B13-A (antibody, V domains shown)
VH: B1 VH
VL: B1 VL

Legend:
[1] = target: SARS-CoV-1 spike on pseudovirus (SARS-CoV-1, UniProt P59594 14-1255); experiment: cell-based or functional assay
SARS-CoV-1 spike trimer [2] = target: T1, SARS-CoV-1 spike trimer (SARS-CoV-1, UniProt P59594 14-1195); experiment: ELISA, plate-coated SARS-CoV-1 spike, purified mouse antibody
SARS-CoV-1 spike trimer [3] = target: T1, SARS-CoV-1 spike trimer; experiment: ELISA, plate-coated SARS-CoV-1 spike

| Binder | IC50, SARS-CoV-1 pseudovirus ACE2+TMPRSS2+ target cell infection assay [1] | EC50 (SARS-CoV-1 spike trimer [2]) [nM] | EC50 (SARS-CoV-1 spike trimer [3]) [nM] |
| --- | --- | --- | --- |
| B1 | ~33 ug/ml and ~220 nM | – | – |
| B2 | – | 0.96 | ~1 |
